# Assay results published in a protein production outcome set (Wang et al. 2014).
# Assay: label from the status in PepcDB records
# 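Further: failed if final PepcDB status was selected cloned or expressed and not failed if soluble or beyond.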
sequence,measurement,value
MPAQQAEQAANLGLAGFQFLAQGVFAALLLQLHAFEFGARLTADLPLALLVGMLGAEGLFGLARAVFAHPLGGRLGLAARLGPGFAGFHERLYLRNVTQSE,protein production,failed
MVSSVLPNPTSAECWAALLHDPMTLDMDAVLSDFVRSTGAEPGLARDLLEGKNWDLTAALSDYEQLRQVHTANLPHVFNEGRGPKQPEREPQPGHKVERPCLQRQDDIAQEKRLSRGISHASSAIVSLARSHVASECNNEQFPLEMPIYTFQLPDLSVYSEDFRSFIERDLIEQATMVALEQAGRLNWWSTVCTSCKRLLPLATTGDGNCLLHAASLGMWGFHDRDLVLRKALYTMMRTGAEREALKRRWRWQQTQQNKEEEWEREWTELLKLASSEPRTHFSKNGGTGGGVDNSEDPVYESLEEFHVFVLAHILRRPIVVVADTMLRDSGGEAFAPIPFGGIYLPLEVPPNRCHCSPLVLAYDQAHFSALVSMEQRDQQREQAVIPLTDSEHKLLPLHFAVDPGKDWEWGKDDNDNARLAHLILSLEAKLNLLHSYMNVTWIRIPSETRAPLAQPESPTASAGEDVQSLADSLDSDRDSVCSNSNSNNGKNGKDKEKEKQRKEKDKTRADSVANKLGSFSKTLGIKLKKNMGGLGGLVHGKMGRANSANGKNGDSAERGKEKKAKSRKGSKEESGASASTSPSEKTTPSPTDKAAGASPAEKGGGPRGDAWKYSTDVKLSLNILRAAMQGERKFIFAGLLLTSHRHQFHEEMIGYYLTSAQERFSAEQEQRRRDAATAAAAAAAAAAATAKRPPRRPETEGVPVPERASPGPPTQLVLKLKERPSPGPAAGRAARAAAGGTASPGGGARRASASGPVPGRSPPAPARQSVIHVQASGARDEACAPAVGALRPCATYPQQNRSLSSQSYSPARAAALRTVNTVESLARAVPGALPGAAGTAGAAEHKSQTYTNGFGALRDGLEFADADAPTARSNGECGRGGPGPVQRRCQRENCAFYGRAETEHYCSYCYREELRRRREARGARP,protein production,failed
MTPDDFDRFWPTFQAIVQARETYAFDPALSFEQARQLWLELPLHTLLAEEDGELLGSYYLKPNAAGPGAHVGNCGYMVCEQARGRGVARLMCEHSQKLARQEGFLALQFNSVVASNEVAVALWHKLGFETVGRLPKAYRHARLGLVDCLVMYKWLAD,protein production,failed
MPQTSSLLGIDALYQFTGAGAQLFSGALFYTVIVRFFSASQVGAVALFIAIIGLFNLIFSFGLGTAVQHFASYHLGRQEYATAKSIVFKILILGIIFSSIGLITMFYLAKPISITFMHTAQYTPIVKLLSIVLVGDVLFGLLNGSALGLQLFRASGLMNIIIWITYYSTALVLAFLLKSLYYVVVGWSVGIFLGVILYLYLIIKSTKNYKGRPRHLTPSLLFQFSIPVLLSSIISYGATYIDRFIVAGLMTLSALGVYNFALLVASSIGFIVAPLNNIMLPKFSEFYGEGNRENIKNRTAIATTVVAGVYVPAALGVAVLSKMIITLLAGKYYEEGSDAISIIMVFSALFVTSNVMTQLIAAVRETRVFIYSSAASLASNAILSIILIPHFGIEGASIGFSSIYAASFFVLYKYAKKTGFYQANVYDLAKVWGSSLVMVFVVLAFEVRFGTSIDLLVPYILLGAVVYLGMIKSTRLIHRNEALFLSSLFPQSMPFITKLIRLISSE,protein production,failed
MASHLFTRSRISLLKTLKPNPFTSASPIRAISGTPFLSQDPLLATESTDHDPSNHQSTSTPLPPNPATGSPLYQENWRSPIPNTPSFNQSLVPLGFLNQAPAPRIRALSETLDMNSLLNMFADWTASQRWSDMKQLFEVWVRSLDKNGKPNKPDVNLYNHYLRANLMMGASAGDMLDLVAPMEEFSVEPNTASYNLVLKAMYQARETEAAMKLLERMLLLGKDSLPDDESYDLVIGMHFGVGKNDEAMKVMDTALKSGYMLSTSVFTECVRSCVAKGRTDTLVSIIERCKAVDRNKSLCPSWILCNYIAEVAIQEDNSKLAFYAFEFMFKWITRGEMARPSVIFSVDEGLVVAGLASAARTCSSSLVEGSWTILKQSLRGRKAANPASYIAKINAYASLGNLQKAFTSLHELESAYADSEKEVVEEMLSPFTSLYPLVVACSKKGFETLDEVYFQLESLSQGDTPYKSVAALNCIILGCANTWDLDRAYQTFEAISASFGLTPNIDSYNALLYAFGKVKKTFEATNVFEHLVSIGVKPDSRTYSLLVDAHLINRDPKSALTVVDDMIKAGFEPSRETLKKLRRRCVREMDDENDDQVEALAKKFQIRMGSENRRNMLFNIDYSRGRALNN,protein production,failed
MLTLLSPCTLPVIPLLFASVRGRRGQLAIMLAGMALMFGAVSWLVTVASGWVVNLTLAGRGLALAFFALVGLSLLSQRVAQRLTSPLVALGNQLNDASSRQRGWIGSLLAGLAVGLLWAPCAGPVLGAILSLGFVHPGQATTGGLLLAYGSGGALMLFLLGWCGAALIARLRRGQAFGERLRRLAGGAMLASVALIASGGDRYLQSAGGLSQALEQRLAARLPQPEQKTSLQPIAAPQPSSAMPSLAGGSAWINSPALTPERLKGKVVLVDFWTRECINCQHTLPYVRDWANKYRAAGLVVIGVHTPEYPWERSLPLLRQAVKDWRITYPVVADNEYAIWNAFGNQYWPAHYIFDARGQLRYTAFGEGDYARQEQVIQQLLQESKA,protein production,failed
MEITIFGKGNMGQAIGHNFEIAGHEVTYYGSKDQATTLGEIVIMAVPYPALAALAKQYATQLKGKIVVDITNPLNFDTWDDLVVPADSSAAQELQQQLPDSQVLKAFNTTFAATLQSGQVNGKEPTTVLVAGNDDSAKQRFTRALADSPLEVKDAGKLKRARELEAMGFMQMTLAASEQIGWTGGFAVVK,protein production,failed
MAHNYLLEIGLEEIPAHVVTPSIKQLVQKVTAFLKENRLTYDSIDHFSTPRRLAIRINGLGDQQPDIEEDAKGPARKIAQDADGNWTKAAIGFTRGQGLTVDDITFKTIKGTDYVYVHKLIKGKMTKEILTGLKEVVESINFPTMMKWANFDFKYVRPIRWLVSILDEEVLPFSILDVTAGRRTEGHRFLGEAVELANAEEYEAKLHDQFVIVDADERKQLISNQIKAIAESNRWNVTPNPGLLEEVNNLVEWPTAFNGGFDEKYLAIPEEVLITSMRDHQRFFFVRDQAGKLLPNFISVRNGNEEFIENVVRGNEKVLTARLEDAAFFYEEDQKHDINYYVDRLKKVSFHDKIGSMYEKLQRVNSIAKVIGNTLNLNQTELDDIDRATMIYKFDLVTGMVGEFSELQGVMGEKYAQLNGENQAVAQAIREHYMPNSAEGDLPESVTGAVVALADKFDNIFSFFSAGMIPSGSNDPYALRRHAYGIVRILNSRDWQLDLNQFKSQVKTELAENGTAFGVDVDQNFDQVLNFFNDRIKQLLDHQKISHDIVETVLTGNNHDVTEIIEAAQVLADAKASSTFKDDIEALTRVQRIATKNEESGELNVDPQLFNNASEGELFDQIIKIEAANNLTMSQLFAKLCELTPAISKYFDATMVMDKDENIKRNRLNMMSRLANLILKIGDLTNVLVK,protein production,failed
DDDIEQLLEFMHQLPAFANMTMSVRRELCSVMIFEVVEQAGAIILEDGQELDSWYVILNGTVEISHPDGKVENLFMGNSFGITPTLDKQYMHGIVRTKVDDCQFVCIAQQDYWRILNHVEK,protein production,not failed
MSLARCERLRGAALRDVLGRAQGVLFDCDGVLWNGERAVPGAPELLERLARAGKAALFVSNNSRRARPELALRFARLGFGGLRAEQLFSSALCAARLLRQRLPGPPDAPGAVFVLGGEGLRAELRAAGLRLAGDPSAGDGAAPRVRAVLVGYDEHFSFAKLREACAHLRDPECLLVATDRDPWHPLSDGSRTPGTGSLAAAVETASGRQALVVGKPSPYMFECITENFSIDPARTLMVGDRLETDILFGHRCGMTTVLTLTGVSRLEEAQAYLAAGQHDLVPHYYVESIADLTEGLEDEGHHHHHH,protein production,not failed
MKVALGGTFEPLHEGHKKLIDVAIKLGGRDITIGVTSDRMARARIRSVLPFAIRAENVKRYVMRKYGFEPEIVKITNPYGKTLDVDFEYLVVSPETYEMALKINQKREELGKRKITIVKVDWMMAEDGKPISSTRIKRGEIDRYGGII,protein production,not failed
MDIKEAGPFPVKKEQFRMTVNGQAWEVAAVPTTHLSDLLRKEFQLTGTKVSCGIGRCGACSILIDGKLANACMTMAYQADGHSITTIEGLQKEELDMCQTAFLEEGGFQCGYCTPGMIIALKALFRETPQPSDKDIEEGLAGNLCRCTGYGGIMRSACRIRRELNGGRRESGF,protein production,failed
MPVKKLKQFLDSHKIKYLSIAHSPAYTAQEIAASAHVSGKQLAKTVIIKMDGRLAMVVLPASDHITFMKLKEAIGTSDLELATESEFEGKFAECDVGAMPPFGNLYGLPVLVSTKLSAQDNILFNAGSHSELMQLSFGDFEKLVKPTLVTL,protein production,not failed
MIRMTVKVPHPLRVVAVSGGMQRPSKSVALAEHLLALIAEQLPCERHLVEIGALAPQFAGAPWRSHLPGSVEQALALVEQADVLVVATPVYRGSFTGLFKHFFDFIDQDALVDTPVLLAATGGSDRHALMIDHQLRPLFSFFQARTLPLGVYATDRDFLDYRVHSQALAERASLAVQRALPLIELTRHARSITAQNVAAA,protein production,failed
MGNLKLALIIKSPRDDVEFLLEKQKQPAKFGDEAYDSFVDSDLWDLPSTDLQALEDGVRSGFSISILDSCSEEVDLMNFDFESTLILLLENLGIDISDVGEWRFVRSVEEPEFGPDSCVRTCFISGKLLNTDQSLQDNCKWMSMESCFDSLIDVKLGSDRVGPLVLLGLGDGSRQSMKHKLSSSLAIQEYPPGVMIVPMHSKTLKPFRTTNLVVFAPENGLGDHQGADFVAHGDALIVDPGCLSKLHVELKKIVDALPRKLIVFVTHHHRDHIDGLSAIQESNPDAILVAHAKTRHRIGGWSGNYTPVSGGENIYVNGQKLTVIFAPGHTDGHMSLLHTSTQSLIVGDHCVGQGSAFLDIRAGGNMTDYFQSTYKFLELSPNVVIPMHGRVNLWPKHMLCGYLKNRRSREKSILKATVDGAQTLYDIVAKVYSSVDRKFWWAASSNVRLHIEKLAVENKLPEGFSIQKFKASCGLRFAIRCTVGYIISKIPFKINKPGFIMSVMAAGAGYFLLYTSKKKNQIES,protein production,failed
MNEQIDPFYEAKQEVDISVNKLQSLYNNWNNIPDKSSISAREKYNLIKEEIKYLNEDLNDLDNSVNIVKKNSYKFNISSQEIEERTQSLRIIRNLLNEITNNINNNVLSYNNNTNNDYNSVILKRQDNDLEELAESAERLHHAAITINTELKDQQKLLDELENEMDISSNEYKMDIYSIYIFVYFEFS,protein production,failed
MHTFKIDCQLHYRVIQMTEFVFQFEVAEHPWQTLIHESFQFKPDLAFEQYERDAGLNRLIRVNAPEGDLSVSYTAKVQTHIPERNTSLKECEIKDLPSDTLFYLAPSRFCESDLIDTMVTNTFAELPKGYSRVQAICDWIHDNIIYQSGSSDSTTTARDILVNRAGVCRDFAHLGIAICRALNIPARFVFGYMPFYQAQPDFHAIFEVYLENQWMLFDATRMGPIDQFVRVGTGLDAKDVPFATVYGEIELISMSPVIELV,protein production,failed
MSHLLEKAAARGDLAALERLLDAGADLEWQHKGTGRTALLAATIAGHQPAVALLLARGANVQQPCKALGYSPLAWAASHGDTALAELLIAHGAALEQASPELQRTALMNAAQAGHEAMVALLLKAGANPSPVDFQQRNAWSLAEENGHAQVMQQLEQAGTGAPPAPAPAPSLPWPPLVPGTDSSADPVTQVRAYTLALYAWEQRGNALGHEALDAAFWAEPQQLLERFCTLRPRAYPRASYGYPTTHAEADELLGCQLLKPAQAEVLVRDPASRALCYEHRFVVKRVAGQWRIDSVKRRLAGTQKWANAIL,protein production,failed
MAGRVHPRQLAFSLPHAESLSRDNFLEGPANAAGLALIDGWPEWPNRIMWLAGPEGSGKSHLAAIWAEEAGARSTTANALSAAGVPGALATGALVVEDLKAKDFDERALFHLMNLAREDGAYVLFTGRDVPAALDIELNDLRSRLRAVPVVMLLPPDDQLFRGLIVKFCADRQLTVDESVVSYLATRLERSSAAARQAVELLDSEALRLGRPVTRALAAELLRDALEHHHHHH,protein production,not failed
KTIFVIVPTNEEQVAFLEALAKQDELNFDWQNPPTEPGQPVVILIPSDMVEWFLEMLKAKGIPFTVYVEEGGSENLYFQ,protein production,not failed
